Laboratory results from the supplement of paper PMC7125110.
± gives the standard error. Variants at the floor of the assay were thinned out.

B1: glmS ribozyme (parent)
chain: AUAAAAGCGCCAGAACUACAGAAAUGUAGUUGACGAGGAGGAGGUUUAUCGAAUUUUCGGCGGAUGCCUCCAAA

Legend:
Conditions in all cases: with glucosamine-6-phosphate
[1] = variants of: B1; test: self-cleavage kobs at 40 uM GlcN6P; higher = faster cleavage; RNA array
Procedure, shortened: (§1)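 Ribozyme variants carrying barcodes were transcribed in situ on sequenced MiSeq chips by E. coli RNA polymerase and tracked at 37 °C with a hybridised Cy3 probe. They were exposed to 40 μM to 10 mM glucosamine-6-phosphate in HEPES/KCl/Mg(OAc)2 buffer. kobs came from exponential decay fits of normalised per-tile medians, and kcat and KM from weighted Michaelis–Menten fits.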

[2] = variants of: B1; test: self-cleavage kobs at 2500 uM GlcN6P; higher = faster cleavage; RNA array
Procedure, shortened: as §1

[3] = variants of: B1; test: self-cleavage kobs at 10000 uM GlcN6P; higher = faster cleavage; RNA array
Procedure, shortened: as §1

[4] = variants of: B1; test: self-cleavage kobs at 160 uM GlcN6P; higher = faster cleavage; RNA array
Procedure, shortened: as §1

[5] = variants of: B1; test: self-cleavage kobs at 640 uM GlcN6P; higher = faster cleavage; RNA array
Procedure, shortened: as §1

Variant | self-cleavage kobs at 40 uM GlcN6P [1] [s⁻¹] | self-cleavage kobs at 2500 uM GlcN6P [2] [s⁻¹] | self-cleavage kobs at 10000 uM GlcN6P [3] [s⁻¹] | self-cleavage kobs at 160 uM GlcN6P [4] [s⁻¹] | self-cleavage kobs at 640 uM GlcN6P [5] [s⁻¹]
G38U C70U C71G | 8.76e-05 ± 2.7e-05 | – | – | – | –
G13A C50G C68G | 7.03e-05 ± 1.5e-05 | 0.000125 ± 2.6e-05 | 9.04e-05 ± 1.9e-05 | – | –
A36G A39G | < 1e-05 | – | – | < 1e-05 | < 1e-05
G9C G13U | < 1e-05 | < 1e-05 | < 1e-05 | < 1e-05 | < 1e-05
G38A G41C G43U | < 1e-05 | – | – | – | –
A33U A48G A52U | < 1e-05 | – | – | – | –
A42G U56G | 0.000474 ± 5.8e-05 | 0.0067 ± 0.0013 | 0.0334 ± 0.0059 | 0.00171 ± 0.00035 | 0.00411 ± 0.00062
U46A A48C | < 1e-05 | – | – | – | –
C34U G41C G59A A64G | < 1e-05 | – | – | < 1e-05 | < 1e-05
C8G G41U | < 1e-05 | < 1e-05 | < 1e-05 | < 1e-05 | < 1e-05
A15G G35C | < 1e-05 | < 1e-05 | – | – | < 1e-05
C16A G37U G43U U57C | < 1e-05 | – | < 1e-05 | – | < 1e-05
U45G C50U A64G | < 1e-05 | – | – | – | < 1e-05
G37C A48C | < 1e-05 | < 1e-05 | < 1e-05 | – | < 1e-05
C11G A39G G63U | < 1e-05 | < 1e-05 | < 1e-05 | – | –
G29U U54G C58U U69G | 6.42e-05 ± 2.3e-05 | – | – | – | –
U30C A52C A64C | < 1e-05 | – | – | – | –
G7C A42G | < 1e-05 | < 1e-05 | < 1e-05 | < 1e-05 | < 1e-05
G38U A64G | < 1e-05 | < 1e-05 | – | – | –
G37U G41C | < 1e-05 | < 1e-05 | – | < 1e-05 | < 1e-05
G29C G60U C61A | < 1e-05 | – | – | – | < 1e-05
A14G U31C G41C G63A | < 1e-05 | – | < 1e-05 | – | –
G35U A48U | < 1e-05 | – | < 1e-05 | < 1e-05 | < 1e-05

Variant | self-cleavage kobs at 40 uM GlcN6P [1] [s⁻¹] | self-cleavage kobs at 2500 uM GlcN6P [2] [s⁻¹] | self-cleavage kobs at 10000 uM GlcN6P [3] [s⁻¹] | self-cleavage kobs at 160 uM GlcN6P [4] [s⁻¹] | self-cleavage kobs at 640 uM GlcN6P [5] [s⁻¹]
G32A C61G | < 1e-05 | – | – | – | –
G35U G41U | < 1e-05 | < 1e-05 | < 1e-05 | < 1e-05 | –
A12C C34G | < 1e-05 | – | < 1e-05 | < 1e-05 | –
C8G G59C | < 1e-05 | – | < 1e-05 | – | < 1e-05
C11A G40A | < 1e-05 | – | 3.6e-05 ± 1.4e-05 | < 1e-05 | –
G41A G59U | < 1e-05 | – | < 1e-05 | – | < 1e-05
G13U G60U C68U | < 1e-05 | – | – | – | –
A15C A39G | 0.000398 ± 9.2e-05 | 0.00476 ± 0.0014 | 0.013 ± 0.0025 | – | 0.00224 ± 0.00049
C50G U56G C61A | 8.29e-05 ± 2e-05 | 0.00021 ± 4.8e-05 | 6.89e-05 ± 1.6e-05 | – | 0.000426 ± 0.00014
G13C A39G A64U | < 1e-05 | < 1e-05 | – | – | –
A42G U69A | 0.000758 ± 0.00012 | 0.000947 ± 0.0003 | – | 0.000231 ± 0.00011 | 0.00094 ± 0.00029
C11G G62C A64G C68G | < 1e-05 | – | < 1e-05 | – | –
C8G U55C | < 1e-05 | – | – | < 1e-05 | < 1e-05
C50G G62U C68G | 0.000123 ± 3.2e-05 | – | 9.97e-05 ± 2.5e-05 | – | –
C58U G62A | < 1e-05 | < 1e-05 | < 1e-05 | < 1e-05 | < 1e-05
U49A U57G | < 1e-05 | – | – | – | < 1e-05
A14G U55G | 0.00161 ± 0.00014 | 0.00953 ± 0.0023 | 0.0589 ± 0.011 | 0.00404 ± 0.00073 | 0.00984 ± 0.0012
G9C U57A | < 1e-05 | < 1e-05 | – | – | < 1e-05
G37U G40C G44U | < 1e-05 | – | – | – | –
C10U G59C | < 1e-05 | – | < 1e-05 | < 1e-05 | < 1e-05
C11G U55C | < 1e-05 | – | – | < 1e-05 | < 1e-05
C50G U65A | 6.61e-05 ± 1.9e-05 | 0.000972 ± 0.00037 | – | 6.9e-05 ± 3e-05 | 0.00136 ± 0.00038
C8G A12C U31C G32C | < 1e-05 | – | – | – | –

Variant | self-cleavage kobs at 40 uM GlcN6P [1] [s⁻¹] | self-cleavage kobs at 2500 uM GlcN6P [2] [s⁻¹] | self-cleavage kobs at 10000 uM GlcN6P [3] [s⁻¹] | self-cleavage kobs at 160 uM GlcN6P [4] [s⁻¹] | self-cleavage kobs at 640 uM GlcN6P [5] [s⁻¹]
A14U A33C G35C U55C | < 1e-05 | – | < 1e-05 | – | –
A12C U45G | 0.000128 ± 4.1e-05 | – | 0.012 ± 0.004 | – | –
U56A G59C | < 1e-05 | < 1e-05 | < 1e-05 | < 1e-05 | < 1e-05
G41U C50A U57A | < 1e-05 | – | < 1e-05 | – | –
G7U A53G U69G | 8.14e-05 ± 2.1e-05 | 9.39e-05 ± 3.9e-05 | 9.89e-05 ± 2e-05 | – | 0.000822 ± 0.00023
G41U U55G C68U C70U | < 1e-05 | – | – | – | –
G29C C50G C61A U65C | 7.48e-05 ± 2.1e-05 | – | – | – | –
G40C C50G | < 1e-05 | < 1e-05 | < 1e-05 | < 1e-05 | –
A14C G35U C70U | < 1e-05 | – | < 1e-05 | – | –
G43A C68U | 0.00208 ± 0.00023 | 0.00869 ± 0.0023 | 0.041 ± 0.0092 | 0.00432 ± 0.00092 | 0.0114 ± 0.0021
C10A G59C | < 1e-05 | < 1e-05 | < 1e-05 | < 1e-05 | < 1e-05
G9A U47C | < 1e-05 | < 1e-05 | – | < 1e-05 | < 1e-05
G9A A53C | < 1e-05 | < 1e-05 | < 1e-05 | < 1e-05 | < 1e-05
G44A A48U C67A | < 1e-05 | – | 0.000216 ± 5.2e-05 | – | –
A6C A33G | < 1e-05 | – | < 1e-05 | – | < 1e-05
A12U G37C A53C U54A | < 1e-05 | – | – | – | –
C11G C50A A52U G63A | < 1e-05 | – | < 1e-05 | – | –
C10U G35U A39U A48G | < 1e-05 | < 1e-05 | < 1e-05 | < 1e-05 | < 1e-05
G38U U57G C68A U69A | 6.8e-05 ± 3e-05 | – | 5.25e-05 ± 2e-05 | – | –
G9C G66A | < 1e-05 | – | < 1e-05 | – | < 1e-05
G32C U45G U65A | < 1e-05 | – | < 1e-05 | – | < 1e-05
U31A G37A C50G A53U C67U | 5.38e-05 ± 1.9e-05 | – | – | – | –
A53G U69C | 0.000897 ± 0.00014 | 0.002 ± 0.00044 | 0.00674 ± 0.0018 | 0.000469 ± 8.4e-05 | 0.00235 ± 0.00048

Variant | self-cleavage kobs at 40 uM GlcN6P [1] [s⁻¹] | self-cleavage kobs at 2500 uM GlcN6P [2] [s⁻¹] | self-cleavage kobs at 10000 uM GlcN6P [3] [s⁻¹] | self-cleavage kobs at 160 uM GlcN6P [4] [s⁻¹] | self-cleavage kobs at 640 uM GlcN6P [5] [s⁻¹]
C10U A64G C68A | < 1e-05 | – | – | – | –
G51C A52G | < 1e-05 | < 1e-05 | < 1e-05 | < 1e-05 | –
A15U C16G C58U G59U | < 1e-05 | < 1e-05 | – | – | < 1e-05
A14G C34U C50G C68G | 7.72e-05 ± 1.6e-05 | – | – | – | –
G37C G43A C61A | < 1e-05 | – | < 1e-05 | – | –
G9C C70U | < 1e-05 | < 1e-05 | < 1e-05 | < 1e-05 | < 1e-05
C11U C16A G44C | < 1e-05 | – | – | – | < 1e-05
A14G C68U | 0.000235 ± 1.9e-05 | 0.00412 ± 0.00051 | 0.0159 ± 0.0026 | 0.000503 ± 6.4e-05 | 0.00222 ± 0.00018
C8U A52G G63U | < 1e-05 | – | < 1e-05 | – | –
G37C G63A | < 1e-05 | < 1e-05 | < 1e-05 | – | < 1e-05
U30G A42U G43U A48U G59U | < 1e-05 | – | – | – | –
G40A C61A | < 1e-05 | – | – | < 1e-05 | < 1e-05
A14U G43U G51U | < 1e-05 | < 1e-05 | – | – | –
G9A C34G U46C C61U G62U | < 1e-05 | – | – | – | –
G7A A12C A42C U49A G60C | < 1e-05 | – | < 1e-05 | – | –
C34A A64C | < 1e-05 | < 1e-05 | < 1e-05 | – | < 1e-05
G32A G40U C67G | < 1e-05 | < 1e-05 | – | – | < 1e-05
C16U C34U G37U | < 1e-05 | – | – | – | –
C10A U49A | < 1e-05 | – | – | < 1e-05 | < 1e-05
C8A G59C | < 1e-05 | < 1e-05 | – | – | < 1e-05
C11G G32U | < 1e-05 | – | < 1e-05 | < 1e-05 | –
